System: MS2 coat protein
Test: apparent KD of MS2 coat protein; designed switch direction (-1 OFF switch, 1 ON switch): 1; higher = weaker reporter binding
Summary of the method: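 For each design, the apparent KD is the median over clusters of curves fitted to normalised cluster fluorescence. Clusters held RNA switches with common flanks, transcribed on Illumina chips by stalled E. coli RNA polymerase. These were titrated with SNAP-549-labelled MS2 coat protein, doubling from 0.7 or 1.5 nM to 3 µM, without input, with 200 uM small-molecule ligand, or with an oligonucleotide input.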

[1] = input ligand: microRNA oligo, concentration not stated
[2] = Eterna round: R95, input ligand: FMN 200 uM
[3] = Eterna round: R95, input ligand: microRNA oligo, concentration not stated
[4] = Eterna round: R95, input ligand: none

## AAAACAUGACGAGGAUAUGGUACAUGAGGAUCACCCAUGUAUGUACCACGACGCGUACGUCGAAUCCAGAAGGCGUCGUGAAAA [Mat - Same State NG 2 - JL mod - D19] (Eterna round: R96, puzzle: Same State NG 2)
Input ligand: FMN 200 uM
  apparent KD of MS2 coat protein: 20.3 nM
[1]
  apparent KD of MS2 coat protein: 68.5 nM
Input ligand: none
  apparent KD of MS2 coat protein: 74.1 nM

## AAAAUACAUGAGGAUCACCCAUGUAGAAACUACACAGGAUAUCGGACGGCUGUAGCCGAACGAGAAGGGUGAACCC [Uszadi] (puzzle: Same State 1)
[2]
  apparent KD of MS2 coat protein: 205 nM
[3]
  apparent KD of MS2 coat protein: 228 nM
[4]
  apparent KD of MS2 coat protein: 313 nM

## AAAAUGGCAUGUUACAUGAGGAUCACCCAUGUGCCGUCAACUGAGGAUAUGGUGCUGUAGAAGAAUCAGAAGGUAGUCAUUUAA [AK SSNG3-V2-27] (Eterna round: R96, puzzle: Same State NG 3)
Input ligand: FMN 200 uM
  apparent KD of MS2 coat protein: 22.6 nM
[1]
  apparent KD of MS2 coat protein: 15.8 nM
Input ligand: none
  apparent KD of MS2 coat protein: 27 nM

## AAACUACGUGCACAGGAUAUACGUUCCUAUACAUGAGGAUCACCCAUGUACCAACCGAAAAGGAAGUAGAAGGGUGUCCGUAAAC [Esardixequ] (puzzle: Same State 2)
[2]
  apparent KD of MS2 coat protein: 19.2 nM
[3]
  apparent KD of MS2 coat protein: 51.6 nM
[4]
  apparent KD of MS2 coat protein: 57.2 nM

## AAACUACGUGCACAGGAUAUACGUUCCUAUACAUGAGGAUCACCCAUGUACCAACUGAAAAGGAAGUAGAAGGGUGUCCGUAAAC [Erbibearza] (puzzle: Same State 2)
[2]
  apparent KD of MS2 coat protein: 17.7 nM
[3]
  apparent KD of MS2 coat protein: 80.3 nM
[4]
  apparent KD of MS2 coat protein: 53.7 nM

## AAAGAAGAAAGACAGGAUAUGGAUGGGUAAACAUGAGGAUCACCCAUGUAUAAGAAAGAAAGAAACCAGAAGGGUCAAAAGAAAA [Darius III] (Eterna round: R96, puzzle: Same State 2)
Input ligand: FMN 200 uM
  apparent KD of MS2 coat protein: 68.7 nM
[1]
  apparent KD of MS2 coat protein: 217 nM
Input ligand: none
  apparent KD of MS2 coat protein: 253 nM

## AAAGGACAUGAGGAUCACCCAUGUAGAAAAUACACAGGAUAUCGUCAUAUCGAAUUAUAAUGAGAAGGGUGCAAAA [Vebeinlala] (puzzle: Same State 1)
[2]
  apparent KD of MS2 coat protein: 59.9 nM
[3]
  apparent KD of MS2 coat protein: 273 nM
[4]
  apparent KD of MS2 coat protein: 124 nM

## AAAGGAUGAUUAUACAUGAGGAUCACCCAUGUAAGUUAUACUAAGGAUAUGUGACUUAAUAGUUUACAGAAGGUAGGUUCAUGA [AK SSNG3-V2-2] (Eterna round: R96, puzzle: Same State NG 3)
Input ligand: FMN 200 uM
  apparent KD of MS2 coat protein: 43.8 nM
[1]
  apparent KD of MS2 coat protein: 69.3 nM
Input ligand: none
  apparent KD of MS2 coat protein: 59.9 nM

## AACAAUCUAUCUGAGGAUAUCAUGAAAAAAACAUGAGGAUCACCCAUGUGCAGGAAAACUGCAUAUGAGAAGGCAGAUAGAUUGA [SS2: 1101] (Eterna round: R96, puzzle: Same State 2)
[1]
  apparent KD of MS2 coat protein: 490 nM

## AACAAUCUAUCUGAGGAUAUCAUGAAAAAAACAUGAGGAUCACCCAUGUGCAGGAAAACUGCAUAUGAGAAGGCAGAUAGAUUGA [salish99_SS2_r3_001] (Eterna round: R96, puzzle: Same State 2)
[1]
  apparent KD of MS2 coat protein: 490 nM

## AACAAUCUAUCUGAGGAUAUCAUGAAAAAAACAUGAGGAUCACCCAUGUGCAGGAAAACUGCAUAUGAGAAGGCAGAUAGAUUGA [salish99_SS2_r3_001] (puzzle: Same State 2)
[2]
  apparent KD of MS2 coat protein: 20.6 nM
[3]
  apparent KD of MS2 coat protein: 484 nM
[4]
  apparent KD of MS2 coat protein: 741 nM

## AACAAUCUAUCUGAGGAUAUCAUGAAAUAAACAUGAGGAUCACCCAUGUGCAGGAAAACUGCUUAUGAGAAGGCAGAUAGAUUGA [salish99_ss2_r3_047] (puzzle: Same State 2)
[2]
  apparent KD of MS2 coat protein: 10.3 nM
[3]
  apparent KD of MS2 coat protein: 12.6 nM
[4]
  apparent KD of MS2 coat protein: 12.2 nM

## AACAAUCUAUCUGAGGAUAUCAUGAAAUAAACAUGAGGAUCACCCAUGUGCAGGUAAACUGCAUAUGAGAAGGCAGAUAGAUUGA [salish99_ss2_r3_040] (puzzle: Same State 2)
[2]
  apparent KD of MS2 coat protein: 60.1 nM
[3]
  apparent KD of MS2 coat protein: 314 nM
[4]
  apparent KD of MS2 coat protein: 571 nM

## AACAGUCGACGAGGAUAUGGACGGACAGGUUUGCCUGUGCGGCUCACAUGAGGAUCACCCAUGUUCUAGAAGGCGUCACUGUGA [Matidia] (Eterna round: R96, puzzle: Same State NG 2)
Input ligand: FMN 200 uM
  apparent KD of MS2 coat protein: 15.5 nM
[1]
  apparent KD of MS2 coat protein: 79.2 nM
Input ligand: none
  apparent KD of MS2 coat protein: 80.5 nM

## AACAGUCGGCGAGGAUAUGGACGUACGAACUUACCCGUGCGGCUCACAUGAGGAUCACCCAUGUUCUAGAAGGCGCCACUGAAA [Atbeon] (Eterna round: R96, puzzle: Same State NG 2)
Input ligand: FMN 200 uM
  apparent KD of MS2 coat protein: 12.2 nM
[1]
  apparent KD of MS2 coat protein: 63.4 nM
Input ligand: none
  apparent KD of MS2 coat protein: 88.8 nM

## AACAUGAGGAUCACCCAUGUGAAAUACUGAGGCAGCUCAGGGAAGGAUAUGGUUGACACCCUCGACCAGAAGGUCCAAAAUAAA [Aquorxe] (Eterna round: R96, puzzle: Same State NG 3)
Input ligand: FMN 200 uM
  apparent KD of MS2 coat protein: 80.8 nM
[1]
  apparent KD of MS2 coat protein: 108 nM
Input ligand: none
  apparent KD of MS2 coat protein: 143 nM

## AACCCAGUGGAAGGAUAUGGCACCUUAUUGGUGCCAGAAGGUCCUAACAUGAGGAUCACCCAUGUGGGCCGGUCGAAAGACCGG [Fiskers NG1ss - 10] (Eterna round: R96, puzzle: Same State NG 1)
Input ligand: FMN 200 uM
  apparent KD of MS2 coat protein: 101 nM
[1]
  apparent KD of MS2 coat protein: 242 nM
Input ligand: none
  apparent KD of MS2 coat protein: 338 nM

## AACCCGAAGGGAGGAUAUGGCACCUUAUUGGUGCCAGAAGGUCCUCACAUGAGGAUCACCCAUGUGGGCCGGUCGAAAGACCGG [Fiskers NG1ss - 12] (Eterna round: R96, puzzle: Same State NG 1)
Input ligand: FMN 200 uM
  apparent KD of MS2 coat protein: 532 nM
[1]
  apparent KD of MS2 coat protein: 407 nM
Input ligand: none
  apparent KD of MS2 coat protein: 500 nM

## AACGGUGCUUGAAAUAGUCACAUGAGGAUCACCCAUGUUAGGCAGGAUAUGUGUCUAAGACGACCGCAGAAGGGCUCAAGCGAU [Eternabot solution 41] (Eterna round: R96, puzzle: Same State NG 3)
Input ligand: FMN 200 uM
  apparent KD of MS2 coat protein: 49.5 nM
[1]
  apparent KD of MS2 coat protein: 26.9 nM
Input ligand: none
  apparent KD of MS2 coat protein: 34.6 nM

## AAGAAAGACGCAGGAUAUCAGUGCAGACCGCACUGAGAAGGGUGAGACAUGAGGAUCACCCAUGUAACACGACAAAACGUCGUG [Anritiat] (Eterna round: R96, puzzle: Same State NG 1)
Input ligand: FMN 200 uM
  apparent KD of MS2 coat protein: 111 nM
[1]
  apparent KD of MS2 coat protein: 118 nM
Input ligand: none
  apparent KD of MS2 coat protein: 13.9 nM

## AAGAAAUCCGCAGGAUAUCCUAAGCCGGGCUUAGGAGAAGGGUGGCCACAUGAGGAUCACCCAUGUAAAGGCUGAAUCACAGCC [Disois] (Eterna round: R96, puzzle: Same State NG 1)
Input ligand: FMN 200 uM
  apparent KD of MS2 coat protein: 662 nM
[1]
  apparent KD of MS2 coat protein: 268 nM
Input ligand: none
  apparent KD of MS2 coat protein: 491 nM

## AAGAAUCUAUCUCAGGAUAUCAUGUCAAAGACAUGAGGAUCACCCAUGUACCAGGAAACUGGUUAUGAGAAGGGAGAUAGAUUCU [Mat - Same State 2 - Mod - D32] (puzzle: Same State 2)
[2]
  apparent KD of MS2 coat protein: 99.4 nM
[3]
  apparent KD of MS2 coat protein: 30.6 nM
[4]
  apparent KD of MS2 coat protein: 282 nM

## AAUAAUUUACAUGAGGAUCACCCAUGUGGUAAACAUGCUUUUUGCUCGUCUUAUGGUUUUUUUUUUUUUUUUUUUUU [viviankchen1] (puzzle: Sensor for hsa-mir-208a version 2)
[2]
  apparent KD of MS2 coat protein: 91 nM
[3]
  apparent KD of MS2 coat protein: 49.6 nM
[4]
  apparent KD of MS2 coat protein: 130 nM

## AAUGUCUCACAUGAGGAUCACCCAUGUCUUUGGAUGAAGCUUUUUGCUCGUCUUCAUUUUGCUCGUCUUACCCAUGU [SBY_1] (puzzle: Sensor for hsa-mir-208a version 2)
[2]
  apparent KD of MS2 coat protein: 44.8 nM
[3]
  apparent KD of MS2 coat protein: 21 nM
[4]
  apparent KD of MS2 coat protein: 52.7 nM

## AAUUAAGAUCAAGGAUAUCACGUCGAUUAGACGUGAGAAGGUGAUAAUUACAUGAGGAUCACCCAUGUAUAACAUGAAUUAAUU [SSNG1/9-B2] (Eterna round: R96, puzzle: Same State NG 1)
Input ligand: FMN 200 uM
  apparent KD of MS2 coat protein: 31.8 nM
[1]
  apparent KD of MS2 coat protein: 23.9 nM
Input ligand: none
  apparent KD of MS2 coat protein: 33.5 nM

## AAUUAUUAACAUGAGGAUCACCCAUGUAUUUUUUGCUCGUCAUGUAUUAUUAUUAUUAUUAUUAUUAUUAUUAUUAA [my first RNA] (puzzle: Sensor for hsa-mir-208a version 2)
[2]
  apparent KD of MS2 coat protein: 26.8 nM
[3]
  apparent KD of MS2 coat protein: 17.1 nM
[4]
  apparent KD of MS2 coat protein: 37.8 nM

## AAUUUUAAACAUGAGGAUCACCCAUGUGUUAUAUAAGCAAAUAAAUAAAUAAAUAAAUAAAUAAAUAAAUAAAUAAA [RNA Sequence] (puzzle: Sensor for hsa-mir-208a version 2)
[2]
  apparent KD of MS2 coat protein: 34.1 nM
[3]
  apparent KD of MS2 coat protein: 40.2 nM
[4]
  apparent KD of MS2 coat protein: 44.5 nM

## ACAAGACAUGAGGAUCACCCAUGUAUAAAUUACACAGGAUAUCGGUGGGCCGCGCCUACACGAGAAGGGUGACUUC [Gere] (puzzle: Same State 1)
[2]
  apparent KD of MS2 coat protein: 77 nM
[3]
  apparent KD of MS2 coat protein: 33.4 nM
[4]
  apparent KD of MS2 coat protein: 35.5 nM

## ACAAGCUUUUCUGUAGUGAAAGGUGGGAUACAUGAGGAUCACCCAUGUAUUGUUGUCAAUAUUUGUCCUCGUCUUAU [JR_SHM208A_Sub086] (puzzle: Sensor for hsa-mir-208a)
[2]
  apparent KD of MS2 coat protein: 31.4 nM
[3]
  apparent KD of MS2 coat protein: 11 nM
[4]
  apparent KD of MS2 coat protein: 31.1 nM

## ACAUGAAAUACAGGAUAUUUUGUACCUACAUGUGACAUGAGGAUCACCCAUGUGGUAAGUAUAAGAGAGAAGGGUAAGAUAUGU [Equivalence 4 - Jieux - Same State NG 2] (Eterna round: R96, puzzle: Same State NG 2)
Input ligand: FMN 200 uM
  apparent KD of MS2 coat protein: 50.1 nM
[1]
  apparent KD of MS2 coat protein: 43.8 nM
Input ligand: none
  apparent KD of MS2 coat protein: 66.4 nM

## ACAUGAAAUGCAGGAUAUUUUGUACCUACAUGUGACAUGAGGAUCACCCAUGUGGUAAGUAUAAGAGAGAAGGGUAAGAUAUGU [Equivalence 3 - Jieux - Same State NG 2] (Eterna round: R96, puzzle: Same State NG 2)
Input ligand: FMN 200 uM
  apparent KD of MS2 coat protein: 60.6 nM
[1]
  apparent KD of MS2 coat protein: 48.3 nM
Input ligand: none
  apparent KD of MS2 coat protein: 72.3 nM

Source: the supplement of paper PMC9170038
